# Laboratory results: patent publication CN105542007A (UNIV NANCHANG, dated 2016)
# Columns and labels:
# [1] = biological target: T1, 前列腺特异性膜抗原 (PSMA) on LNCaP prostate cancer cells (UniProt Q04609 1-750, limits assumed); test: cell ELISA on fixed LNCaP (PSMA+) against MKN45 (PSMA-) cells, HRP-anti-M13 detection, OD450
# T1 construct: whole, on cells; Endogenous PSMA on fixed LNCaP cells; also called LNCaP细胞(表达PSMA)
# [2] = biological target: T2, 重组表达的PSMA胞外区蛋白 (recombinant extracellular domain of prostate-specific membrane antigen, expressed in HEK-293) (UniProt Q04609 44-750, limits assumed); test: indirect phage-ELISA, PSMA extracellular domain coated at 5 μg/mL, HRP-anti-M13 detection
# T2 construct: extracellular domain; Cloned into pRAG2a via NotI/BamHI, secreted from HEK-293 cells and purified with HisTrap; also called 前列腺特异性膜抗原膜外区; PSMA蛋白; not shown: His tag (purified with HisTrap, detected with anti-His antibody)
# T2 sequence (Q04609 44-750 limits assumed): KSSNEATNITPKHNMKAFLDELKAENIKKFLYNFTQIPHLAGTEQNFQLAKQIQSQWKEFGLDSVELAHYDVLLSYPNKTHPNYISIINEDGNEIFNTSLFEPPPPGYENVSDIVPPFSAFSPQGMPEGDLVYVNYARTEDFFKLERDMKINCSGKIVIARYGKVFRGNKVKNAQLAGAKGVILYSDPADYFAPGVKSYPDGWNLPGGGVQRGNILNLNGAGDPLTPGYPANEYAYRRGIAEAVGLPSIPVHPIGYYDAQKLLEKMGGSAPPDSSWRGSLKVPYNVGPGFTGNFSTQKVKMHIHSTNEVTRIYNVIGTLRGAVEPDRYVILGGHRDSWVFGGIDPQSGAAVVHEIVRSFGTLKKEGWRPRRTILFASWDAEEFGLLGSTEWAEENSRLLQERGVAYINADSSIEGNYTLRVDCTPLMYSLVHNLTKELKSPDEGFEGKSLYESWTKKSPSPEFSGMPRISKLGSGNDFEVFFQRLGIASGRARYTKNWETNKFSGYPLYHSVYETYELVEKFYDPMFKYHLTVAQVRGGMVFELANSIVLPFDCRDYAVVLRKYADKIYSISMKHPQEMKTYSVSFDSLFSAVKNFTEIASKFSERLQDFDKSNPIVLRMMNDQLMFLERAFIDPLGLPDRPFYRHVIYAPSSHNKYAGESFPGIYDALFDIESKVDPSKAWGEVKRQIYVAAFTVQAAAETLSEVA
# T1 sequence (Q04609 whole entry): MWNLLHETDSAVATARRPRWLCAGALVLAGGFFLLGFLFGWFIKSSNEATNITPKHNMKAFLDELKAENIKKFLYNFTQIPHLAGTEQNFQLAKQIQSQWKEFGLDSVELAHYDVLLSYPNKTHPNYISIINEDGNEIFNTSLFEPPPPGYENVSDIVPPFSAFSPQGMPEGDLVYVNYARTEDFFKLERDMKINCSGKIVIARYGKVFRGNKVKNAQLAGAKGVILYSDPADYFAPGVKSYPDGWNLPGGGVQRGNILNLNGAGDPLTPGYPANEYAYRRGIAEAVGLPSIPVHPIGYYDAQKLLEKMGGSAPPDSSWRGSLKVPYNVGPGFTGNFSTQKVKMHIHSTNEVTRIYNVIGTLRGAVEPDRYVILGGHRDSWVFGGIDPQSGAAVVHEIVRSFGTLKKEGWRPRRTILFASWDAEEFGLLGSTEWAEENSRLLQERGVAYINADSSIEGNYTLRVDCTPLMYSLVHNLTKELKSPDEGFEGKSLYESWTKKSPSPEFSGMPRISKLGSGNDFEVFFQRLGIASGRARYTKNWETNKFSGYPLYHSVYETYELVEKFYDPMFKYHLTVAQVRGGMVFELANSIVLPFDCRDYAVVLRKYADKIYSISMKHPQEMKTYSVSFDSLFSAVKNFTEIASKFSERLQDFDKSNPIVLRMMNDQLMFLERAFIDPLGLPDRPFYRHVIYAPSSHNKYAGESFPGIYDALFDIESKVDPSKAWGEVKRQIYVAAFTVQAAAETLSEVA
binder,measurement,setting,value
"抗前列腺特异性膜抗原单域重链抗体噬菌体阳性克隆 (phage clone displaying the anti-PSMA single-domain heavy-chain antibody of SEQ ID NO: 1) (VHH, VHH selected from a naive camelid phage display library; It was tested as a phage particle and detected with anti-M13 antibody, not as a purified protein; also called 针对前列腺特异性膜抗原的单域重链抗体阳性克隆; 展示本发明所述纳米抗体的噬菌体克隆; not shown: the phage coat protein fusion and any linker or tag are not described) VHH: QLQLVESGGGLVQAGGSLRLSCAASGRTFSRYAVGWFRQAPGKEREFVSGLSWTGSSTLYADSVKGRFTFSRDNAKKMVYLQMNTLMPEDTAVYYCAARKTRGKSYEYWGQGTQVTVSS",binding result,[1],binds
same,binding result,[2],binds
